Values quoted from earlier work as cited in patent publication US20050255458A1, “Drug discovery assays based on the biology of chronic disease” (priority 2002, published 2005).

B1: soluble TF: soluble tissue factor (protein, UniProt P13726 33-251, looked up)
extracellular domain: SGTTNTVAAYNLTWKSTNFKTILEWEPKPVNQVYTVQISTKSGDWKSKCFYTTDTECDLTDEIVKDVKQTYLARVFSYPAGNVESTGSAGEPLYENSPEFTPYLETNLGQPTIQSFEQVGTKVNVTVEDERTLVRRNNTFLSLRDVFGKDLIYTLYYWKSSSSGKKTAKTNTNEFLIDVDKGENYCFSVQAVIPSRTVNRKSTDSPVECMGQEKGEFRE
modifications: extracellular domain
notes: soluble tissue factor
B2: IL-1α: interleukin 1α cytokine (protein, UniProt P01583 113-271, looked up)
Interleukin-1 alpha: SAPFSFLSNVKYNFMRIIKYEFILNDALNQSIIRANDQYLTAAALHNLDEAVKFDMGAYKSSKDDAKITVILRISKTQLYVTAQDEDQPVLLKEMPEIPKTITGSETNLLFFWETHGTKNYFTSVAHPNLFIATKQDYWVCLAGGPPSITDFQILENQA

How the values were obtained:
[1] = tested on: reverse transmigration of PBMC across HUVEC
[2] = tested on: anagen hair follicles; settings: Philpott 1996

| Molecule | inhibition of reverse transendothelial migration [1] [%] | scalp hair growth [2] |
| --- | --- | --- |
| B1 | 69±2 |  |
| B2 |  | inhibition of scalp hair growth |
